In patent publication EP3470429A1 (Numab Innovation AG, dated 2019):
Numbering of substitutions follows the chain as printed. Each block holds one binder with its values, some of them ahead of it.

Columns and labels:
mouse serum albumin = target: T1, mouse serum albumin (mouse, UniProt P07724 25-608); experiment: assay not given
T1 construct: also called MSA

human serum albumin = target: T2, human serum albumin (human, UniProt P02768 25-609); experiment: SPR Biacore T200, SA amine-coupled to CM5 chip, pH 5.5
T2 construct: also called HSA; human SA

[1] = target: T3, human PD-L1 expressed on cells (human, UniProt Q9NZQ7 19-290); experiment: cell-based or functional assay
[2] = target: T4, recombinant human PDL1 extracellular domain (human, UniProt Q9NZQ7 19-238); experiment: competition ELISA, PD-1 coated, biotinylated PD-L1 in solution, with HSA
T4 construct: also called hPDL1; hPDL1 ECD

[3] = target: T3, human PD-L1 expressed on cells; experiment: cell-based or functional assay; remark: listed apart in the source
[4] = target: T3, human PD-L1 expressed on cells; experiment: cell-based or functional assay; remark: listed apart in the source
[5] = target: T3, human PD-L1 expressed on cells; experiment: cell-based or functional assay; remark: listed apart in the source
[6] = target: T5, human PD-L1-Fc chimeric protein (human, UniProt Q9NZQ7 19-238); experiment: SPR Biacore T200, PD-L1-Fc captured by anti-human Fc
T5 construct: not shown: Fc part, captured by an anti-human IgG Fc antibody

[7] = target: human CD137-Fc chimeric protein (human) (UniProt Q07011); experiment: SPR Biacore T200, CD137-Fc captured by anti-human Fc
human CD137-Fc chimeric protein (human), sequence (Q07011 24-186 limits assumed, change not shown): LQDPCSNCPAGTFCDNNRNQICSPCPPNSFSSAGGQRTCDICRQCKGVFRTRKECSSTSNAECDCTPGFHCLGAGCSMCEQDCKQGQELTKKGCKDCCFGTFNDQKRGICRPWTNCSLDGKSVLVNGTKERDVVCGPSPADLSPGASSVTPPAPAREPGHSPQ

T1 sequence (P07724 25-608 limits assumed): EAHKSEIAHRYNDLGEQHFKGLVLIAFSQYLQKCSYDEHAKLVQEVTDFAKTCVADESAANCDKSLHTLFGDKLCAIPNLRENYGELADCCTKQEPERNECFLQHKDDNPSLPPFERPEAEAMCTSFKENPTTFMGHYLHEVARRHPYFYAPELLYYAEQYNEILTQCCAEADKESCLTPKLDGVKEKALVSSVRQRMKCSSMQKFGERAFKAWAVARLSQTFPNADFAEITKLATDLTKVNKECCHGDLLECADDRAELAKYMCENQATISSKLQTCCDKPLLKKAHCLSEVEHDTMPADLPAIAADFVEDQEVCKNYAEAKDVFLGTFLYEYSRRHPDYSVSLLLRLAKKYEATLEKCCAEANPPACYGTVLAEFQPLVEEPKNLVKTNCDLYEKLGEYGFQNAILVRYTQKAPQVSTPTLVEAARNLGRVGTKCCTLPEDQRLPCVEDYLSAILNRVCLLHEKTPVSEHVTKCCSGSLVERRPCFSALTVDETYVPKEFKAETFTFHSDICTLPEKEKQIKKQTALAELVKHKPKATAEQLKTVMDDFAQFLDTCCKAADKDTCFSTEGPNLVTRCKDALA

- binding result (mouse serum albumin): binds
- binding result (human serum albumin): binds
- IC50 (ng/ml), NF-AT Potency assay, with HSA [1]: 665 ng/mL
- fold higher IC50 in presence of human serum albumin [2]: ~2 fold
B1: PRO1057 (other)
chain: DIQMTQSPSSLSASVGDRVTITCQASQSINDYLAWYQQKPGKAPKLLIYKASTLASGVPSRFSGSGSGTDFTLTISSLQPEDFATYYCQQGYIITDIDNVFGTGTKVTVLGGGGGSQVQLQESGPGLVKPSETLSLTCKVSGFSFSNSYWICWIRQPPGKGLEWIGCTFVGSSDSTYYANWAKGRVTISVDSSKNQFSLKLSSVTAADTAVYYCARHPSDAVYGYANNLWGQGTLVTVSSGGGGSGGGGSGGGGSGGGGSIQMTQSPSSLSASVGDRVTITCQASQSINNVLAWYQQKPGKAPKLLIYRASTLASGVPSRFSGSGSGTDFTLTISSLQPEDFATYYCQSSYGNYGDFGTGTKVTVLGGGGGSQVQLQESGPGLVKPSETLSLTCKVSGFSFSSGYDMCWIRQPPGKGLEWIGCVVAGSVDITYYASWAKGRVTISVDSSKNQFSLKLSSVTAADTAVYYCARKDAYSDAFNLWGQGTLVTVSSGGGGSGGGGSVVMTQSPSSLSASVGDRVTITCQASQIISSRSAWYQQKPGQPPKLLIYQASKLASGVPSRFSGSGSGTDFTLTISSLQPEDFATYYCQCTYIDSNFGAFGGGTKLTVLGGGGGSGGGGSGGGGSGGGGSEVQLVESGGGLVQPGGSLRLSCAASGFSFSSSYWICWVRQAPGKGLEWVGCVFTGDGTTYYASWAKGRFTISRDNSKNTVYLQMNSLRAEDTATYFCARPVSVYYYGMDLWGQGTLVTVSS
notes: also called 38_02_A04 sc01 scDb-i/33-03-G02 sc01 scDb-o/mxr HSA (23-13-A01-sc03, sk17sh4)

- EC50 (ng/ml) of IL-2 secretion, PBMC with CHO cells expressing PD-L1; 1 ug/ml anti-CD3, 50000 CHO cells/well [3]: 12.8 ng/mL
- EC50 (ng/ml) of IL-2 secretion, PBMC with CHO cells expressing PD-L1; 1 ug/ml anti-CD3, 100000 CHO cells/well [3]: 86.2 ng/mL
- EC50 (ng/ml) of IL-2 secretion, PBMC with CHO cells expressing PD-L1; 1 ug/ml anti-CD3, 200000 CHO cells/well [3]: 80.6 ng/mL
- EC50 (ng/ml) of IL-2 secretion, PBMC with CHO cells expressing PD-L1; 2 ug/ml anti-CD3, 50000 CHO cells/well [3]: 52 ng/mL
- EC50 (ng/ml) of IL-2 secretion, PBMC with CHO cells expressing PD-L1; 2 ug/ml anti-CD3, 100000 CHO cells/well [3]: 41.9 ng/mL
- EC50 (ng/ml) of IL-2 secretion, PBMC with CHO cells expressing PD-L1; 2 ug/ml anti-CD3, 200000 CHO cells/well [3]: 30.1 ng/mL
- IC50 (ng/ml), NF-AT Potency assay [1]: 137 ng/mL
- EC50 in ng/ml of IL-2 secretion, PBMC assay using SEA stimulation [4]: 39.9 ng/mL
B2: PRO885 (bispecific antibody)
chain: DIQMTQSPSSLSASVGDRVTITCQASQSINDYLAWYQQKPGKAPKLLIYKASTLASGVPSRFSGSGSGTDFTLTISSLQPEDFATYYCQQGYIITDIDNVFGTGTKVTVLGGGGGSQVQLQESGPGLVKPSETLSLTCKVSGFSFSNSYWICWIRQPPGKGLEWIGCTFVGSSDSTYYANWAKGRVTISVDSSKNQFSLKLSSVTAADTAVYYCARHPSDAVYGYANNLWGQGTLVTVSSGGGGSGGGGSGGGGSGGGGSIQMTQSPSSLSASVGDRVTITCQASQSINNVLAWYQQKPGKAPKLLIYRASTLASGVPSRFSGSGSGTDFTLTISSLQPEDFATYYCQSSYGNYGDFGTGTKVTVLGGGGGSQVQLQESGPGLVKPSETLSLTCKVSGFSFSSGYDMCWIRQPPGKGLEWIGCVVAGSVDITYYASWAKGRVTISVDSSKNQFSLKLSSVTAADTAVYYCARKDAYSDAFNLWGQGTLVTVSS

- IC50, NFAT reporter gene assay [5]: 48.1 ng/mL
- fold improvement of neutralization potency against PRO885 [5]: 3 fold
- fold improvement in affinity compared to the CDR graft (PRO885) [6]: 20 fold
B3: PRO1126 (bispecific antibody)
chain: B2 chain with I2F, M4L, A43S, V374S, V396A, I410V, G422A, V446K, F453V, Y469F

- fold improvement of affinity compared to PRO885 [7]: > 200 fold
- binding result [6]: binds
B4: PRO1124 (bispecific antibody)
chain: B2 chain with V140A, I154V, V190K, F197V, Y213F, I261L, A302P
notes: also called 38-02-A04 sc06 Full scDb-i/33_03_G02 sc01 scDb-o
